A short description of the data set: soluble fraction after stress (log2 fold change); higher = more stays soluble; pooled small domains, quantitative proteomics. The conditions noted are these: stress: pH 4. In outline: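 How much of each domain stays soluble after acid stress, expressed as a fold change, is used to gauge aggregation propensity. Pooled custom libraries of small domains underwent pH 4 stress before high-throughput quantitative proteomics. A higher log2 value means more of the domain stayed soluble.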

On to “HMTEEELLERLDAVITEYKGKPGALIPVLQLAQGIFGYLPEVALKHIARQLDKPYSEVAGVVSFYSFFTT”, for which the “soluble fraction (log2)” value is -0.048. For “HMTEFDVIMKSFGSEKIKVIKEVRAITGLGLAEAKALVEGVPAKIKEQVSKDDAEALKKQLEAVGAEVEL” the value was -0.76; for “HMTEFWTGPITTVTKANFADWTLDTNQDRITANVWLTRADSKGLFNITPGKETAFDIVDYLSPLDTEWA”, -1.82. On to “HMTEGDRLARRILRLVRNKPNGYPEVELMKATVLDWNHFQRSISSLEMAGILERRDPGDGTPPVWVEKR”, for which the “soluble fraction (log2)” value was -1.11.

Regarding “HMTEKIEWYKEVLDLEPNSKIFFPLAKMLEKEGELEEARRVLAEGVSRHEEFLEARLFYISVLSRL”, the “soluble fraction (log2)” value is -1.05. For “HMTENLELLATGSLWTEPDGSGKIISYLIPGLRVKKLETNGIFYKIQLQNGLIGWADQSLFTIAEPK” the value was -0.212; for “HMTENQKNIDLIKIVSLLVHAAKIDENYTNKEKELIINFINNFSKENKQNIKSSEILEEAEKYEK”, -0.0377; for “HMTEPKRIVDHWQPSDDVYDILRMSHIDLDFARSLLPEFIVYWKDSSQTHTSWNSKFLQHAKYHWAKRHQL”, -1.21. Then “HMTEPLTKREKEVLLLLPRGLTAKAMASELFLTEATIKSHLAAIFRKFKVVNRTQAIAIAVESKILT”, with -1.1; and “HMTESLVITVDPALHGLRLDRGLADALPDRSRSEVQRWIKEGRVQLHGAPAKPSLKLAAGDIVTIALPEE”, with 0.236; and “HMTESSTYFEKIGTEISQFKSIPKNIDVIIIEKLIYSGIIKKVDNEENSRVYYILTRKGRYFWKRYVLS”, with -0.0659. For “HMTETFVLNLRQPIAAAPVLPGYRVARTDEQTLEVEVSKDQNLNEIFTALSALGVEVLSMRNK” the value was -0.303; for “HMTFAEADAQYEVIKQQYLAGALDEEQFDEQLHRLMVLDDGGLWWAKSRENGSWHYYDPDREDWIAATP”, -0.995; for “HMTFEAKKGYINADMSVNVRETASTSATVIITLNPNTEVKVVGEENDFYKIEYKEYKGYVAKRLISDSQVQ”, -0.142.

Take “HMTFPTEAKLTGDKVFVRSGPSTQSQRLTNLAINSVVTVLAREMGDMQYPWYKVRYSDGEGWVYGQYVEAI”: the “soluble fraction (log2)” value is 0.122. Then “HMTFTQFAESHGVIIKSLKASDKIQRGPTVAHPKSDNGAWLWDGNRGGVMAWDGDGQWYWFK”, with -0.108; and “HMTGEERRMNTADLYRRRGMELFKRKIYVDAIDSLKVSLEYEDNATTRYYLDLATKRYQDLKIS”, with -0.0891.

For “HMTGETWAERSRALAAAGLIVMGQEAKNKIEDLPSLSPLIEAAAASETRLLTGQIIDELLAFV”, the “soluble fraction (log2)” value is -1.04. As to “HMTGIELLSHREHQVYDLLTQGRTVTEIGAQLNLAPNTVSTYRARILEKTGTKNDVELALYAQRH”, the “soluble fraction (log2)” value is -0.114. Then “HMTGKASEIAALLEQRIAAGDYPAGSKLPSERELAASFHVSRNTIRDAIALLAARKIVSTKWGAGTVVLG”, with -0.0946; and “HMTGLRETIPAALDGERLDRVVALLGDVSRSRASAALEAERVTLDGEVVTLRSHRVREGEELTVAGFE”, with 0.177; and “HMTGLSAQILAKLRDNHGVLPVSDKSDPAVISNLFGVSKGNFKKAIGGLYKEGQIVIHADRIEL”, with 0.302. Then “HMTGLSFEEKDLLGNALKLLDETERRIVILHATSGLKHREIAKQLDIPLPTVLSKYTRAIKKLKKHME”, with -0.144; and “HMTGPSYTTRRVEAAETMMEFLRTFPQAAPFIGDLYVKAQDWPLGEEIGDRLKKMLPPQLQE”, with -0.451. Then “HMTGQVASMVERLAQRLKDQPQDAEGWAMLARSYSVLGRHPEALQAYEKALALRKDDANLLADYADSLA”, with -0.729; and “HMTGRHEEAIQELKRTLELHPQKPKIFLLLGVSYLRLNNLKKAVEAFNTVLLLQPKNQKALTMLKEIKKR”, with -0.113.

Turning to “HMTGSLLVEVQGRPDADRLLGQALVDAGLTARPAGGALIEVEVRDETTPDVVRDLTVDLGLGLVRMQERH”, the “soluble fraction (log2)” value is -1.01. Then “HMTGSLRIKHKTYYMLFSWKDESGQWRQKSESTGIPERGGKRKAQEMLNTRLEELQLQSTASL”, with 0.199; and “HMTGSLRVTSSPSGAEIYVDEIYRGYTPLTIGSLSTGRHEVRLHLSGYQDYTRTVEIESGSQSSFSVTLT”, with 0.0547. Then “HMTGSTSVAQVSTPSGSLNLRAYASTSARVLLQIPEYAFVTVYNRGATWSYVSYNGVSGYVMSVYLSFGG”, with -0.846.

As to “HMTGTVKVNSLNVYKSASLDSEVKDTLVLNTKVTIAENGQVTDGIYVWGRLQSGEGYVQMNNLTL”, the “soluble fraction (log2)” value is -1.59. Then “HMTHRRLELTLDAIDERLDRALTAAVPELSRMQWQRLIREGLVTVDGERARPSYRIQGGETLVALVPEV”, with -0.167; and “HMTIAEGLIFRFTEPFKPIDQYTYYIMGDNKVEQIPNFKTLEVMLAQRNQNYLSVRVIEKSQLDDILKEF”, with -1.73. “HMTIDETKKQQVKDGLKDIPGVTVEFVGDKAVLKGAVTDANRVKIMQIVMAAKVLSDASGLTSK”: the “soluble fraction (log2)” value stood at 0.237. For “HMTIDTSNDLLNQITEATSKGPISILELKDQLNVNASDIEGELRTLIDQHLVFLKDGMLQVIPFD” the value was -0.423; for “HMTIEEMAIENINFSTQLLYKAMKYNGVNTVGDLLEKARSKKDLLTMAYIGNKEAEEIIEKLSELGITI”, -1.84; for “HMTIFGWQQDETGKWYRNADGTFYENGWKEIDGAQYYFDENGYVTTGWLELDGKDYYFDEEGKYDSTKVR”, -1.25. As to “HMTIGPALAIGGNKVEMTQQGKIQVTNPQGKIKTLSQDEFKKQLVKNADKIEAGQDFEFKKD”, the “soluble fraction (log2)” value amounted to 0.339. Then “HMTIKLFPNPSTDFIRVSELSAKENYKIYTILGSEIKRGSVSNNETIDIRNLNSGVYLLKFDNGTTKKIVK”, with 0.124; and “HMTIKTAFPAEDLAKPDNFKSLLYYFGLLTIRGTKWGSTLLAIPNLTVREQLYSYLVEAYRSADL”, with 0.244.

On to “HMTILKEGMSGPEVERLQDALKRHGFDPGRVDGQFGPGTEAAILAFQKSEGLRADGVAGPKTQQALGLE”, for which the “soluble fraction (log2)” value amounted to 0.155. In the case of “HMTIRLKELRKQKGNTQAEVAKILGTNQSQYGKYENERTQLSLDNAKILSDYFGVSVPYLLGLDDNP”, the “soluble fraction (log2)” value was -0.486. For the sequence “HMTISDTAYQAFLEQLGVGMVVEHKRFGEGVITGMPKGKIRITFEEGTKSFQARALAESGMLK”, the “soluble fraction (log2)” value was -0.824.

With “HMTISIAEQIFEQLEREILSGAYPRGELLTETKLSEKLGVSRTPIREALRRLDQEHIIKMTTKGAFVLGI”, the “soluble fraction (log2)” value was 0.198. For “HMTITIGNSDGGYMKMGADGFEVRFSGSDGGNHYAKMYYNNDGWARLTLGSYGEEKARIDSDGMIQTR” the value was 0.208; for “HMTKEAIAQKLRIARQESGLTQKDVSAKIGRPQQTIASWEVGRSQPDADTLYSLLLLYKVSPNTFFEYD”, -0.237. Then “HMTKEEIVVNWLPRYTKRNLEDFGEYILLTNFNKYVEIFAEKFNVPILGRDANMISASAEGITIIN”, with -0.359; and “HMTKEEREKREKYEKLMKKAEELTAAKNHREVINVLGQAKAYATAAQLKEIEEKIKAATSEMNK”, with 0.257. For the sequence “HMTKEGVNISITADGVQLSTESPNRVSIFNVNGTKVWEGIAPANVSLQKGVYILQTANGNTKFV”, the “soluble fraction (log2)” value is -0.407.

For “HMTKLLITNYERNVLINSYLLKNTPELDDIRRLLVHNKHISENDVSTEMARRIKKHKADWLRVT”, the “soluble fraction (log2)” value was 0.00962.

Values taken from the domain aggregation screens of Martell et al. (2025).
